We go through 18 molecules from US20220064275A1 (SCHOLAR ROCK, published 2022).

Usually Kd stands for the constant that tells how readily two partners part at equilibrium.

The labels stand for the following.
B1: Ab21 (antibody, V domains shown)
VH: EVQLVESGGGLVQPGGSLRLSCAASGFTFSSFSMDWVRQAPGKGLEWVSYISPDASTIYYADSVKGRFTISRDNAKNSLYLQMNSLRAEDTAVYYCARGVLDYGDMLDPWGQGTLVTVSS
VL: DIQMTQSPSSLSASVGDRVTITCQASQDITNYLNWYQQKPGKAPKLLIYDASNLETGVPSRFSGSGSGTDFTFTISSLQPEDIATYYCQQADNHPPWTFGGGTKVEIK
B2: Ab28 (antibody, V domains shown)
VH: B1 VH with A97V
VL: B1 VL
B3: Ab27 (antibody, V domains shown)
VH: B1 VH with S31F, F32Y, S33A, D35N
VL: B1 VL
B4: Ab25 (antibody, V domains shown)
VH: B1 VH with S30G
VL: B1 VL
B5: Ab23 (antibody, V domains shown)
VH: B1 VH with D35N, D54S, S56D, S78T
VL: B1 VL
B6: Ab16 (antibody, V domains shown)
VH: EVQLLESGGGLVQPGGSLRLSCAASGFTFSNYAMSWVRQAPGKGLEWVSAISGSGFTTYYADSVKGRFTISRDNSKNTLYLQMNSLRAEDTAVYYCARVSSGHWDFDYWGQGTLVTVSS
VL: DIQLTQSPSSLSASVGDRVTITCRASQSISSYLNWYQQKPGKAPKLLIYAASNLQSGVPSRFSGSGSGTDFTLTISSLQPEDFATYYCQQTYTVPLTFGGGTKVEIK
B7: Ab13 (antibody, V domains shown)
VH: B6 VH with S30A, N31D, S35T, G53S, S54F, G55A, F56S, T57A, T58I
VL: B6 VL with L4M, N53S, T91V, T93D, V94P
B8: Ab8 (antibody, V domains shown)
VH: B6 VH with E1Q, L5V, L11V, G16R, N31D, S35V
VL: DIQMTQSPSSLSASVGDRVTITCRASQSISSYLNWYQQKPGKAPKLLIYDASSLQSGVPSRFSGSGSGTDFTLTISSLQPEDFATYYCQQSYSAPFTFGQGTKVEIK
B9: Ab36 (antibody, V domains shown)
VH: B6 VH with S30R, A50S, F56G, T57A, F106L
VL: not shown
B10: Ab9 (antibody, V domains shown)
VH: B6 VH with E1Q, L5V, L11V, N31S, Y32F, S35T, F56A, T57A, Y60F
VL: not shown
B11: Ab7 (antibody, V domains shown)
VH: B6 VH with S30A, N31D, S35T, S54T, F56A, T57H
VL: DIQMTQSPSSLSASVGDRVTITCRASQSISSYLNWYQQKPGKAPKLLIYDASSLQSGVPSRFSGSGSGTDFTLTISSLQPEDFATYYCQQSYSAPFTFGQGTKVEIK
B12: Ab10 (antibody, V domains shown)
VH: B6 VH with S30R, A50S, F56G, T57A
VL: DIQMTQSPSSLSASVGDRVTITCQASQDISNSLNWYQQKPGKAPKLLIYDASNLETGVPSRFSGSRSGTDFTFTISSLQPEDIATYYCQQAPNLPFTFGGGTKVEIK
B13: Ab14 (antibody, V domains shown)
VH: B6 VH with N31A, S35T, S54T, F56G, T57S
VL: B6 VL with L4M, N53S, T91V, T93D, V94P
B14: Ab17 (antibody, V domains shown)
VH: B6 VH with L11V, N31S, Y32F, S35T, F56A, T57A, Y60F
VL: B6 VL
B15: Ab18 (antibody, V domains shown)
VH: B6 VH with E1Q, L5V, L11V, G16R, N31D, S35V, F56A, T57A, Y60F, R98T
VL: B6 VL
B16: Ab15 (antibody, V domains shown)
VH: B6 VH with L5V, L11V, G16R, N31D, S35V
VL: B6 VL
B17: Ab5 (antibody, V domains shown)
VH: B1 VH
VL: B1 VL
B18: Ab1 (antibody, V domains shown)
VH: B6 VH with S30R, A50S, F56G, T57A
VL: DIQLTQSPSSLSASVGDRVTITCQASQDISNFLNWYQQKPGKAPKLLIYDASNLETGVPSRFSGSGSGTDFTFTISSLQPEDIATYYCQQVFNPPLTFGGGTKVEIK

Numbering of substitutions follows the chain as printed.

Sequence of hLTBP3-proTGFβ1 complex made by transfected cells (cell-based potency assay) (Q9NS15 44-1303, chain 1 of 2): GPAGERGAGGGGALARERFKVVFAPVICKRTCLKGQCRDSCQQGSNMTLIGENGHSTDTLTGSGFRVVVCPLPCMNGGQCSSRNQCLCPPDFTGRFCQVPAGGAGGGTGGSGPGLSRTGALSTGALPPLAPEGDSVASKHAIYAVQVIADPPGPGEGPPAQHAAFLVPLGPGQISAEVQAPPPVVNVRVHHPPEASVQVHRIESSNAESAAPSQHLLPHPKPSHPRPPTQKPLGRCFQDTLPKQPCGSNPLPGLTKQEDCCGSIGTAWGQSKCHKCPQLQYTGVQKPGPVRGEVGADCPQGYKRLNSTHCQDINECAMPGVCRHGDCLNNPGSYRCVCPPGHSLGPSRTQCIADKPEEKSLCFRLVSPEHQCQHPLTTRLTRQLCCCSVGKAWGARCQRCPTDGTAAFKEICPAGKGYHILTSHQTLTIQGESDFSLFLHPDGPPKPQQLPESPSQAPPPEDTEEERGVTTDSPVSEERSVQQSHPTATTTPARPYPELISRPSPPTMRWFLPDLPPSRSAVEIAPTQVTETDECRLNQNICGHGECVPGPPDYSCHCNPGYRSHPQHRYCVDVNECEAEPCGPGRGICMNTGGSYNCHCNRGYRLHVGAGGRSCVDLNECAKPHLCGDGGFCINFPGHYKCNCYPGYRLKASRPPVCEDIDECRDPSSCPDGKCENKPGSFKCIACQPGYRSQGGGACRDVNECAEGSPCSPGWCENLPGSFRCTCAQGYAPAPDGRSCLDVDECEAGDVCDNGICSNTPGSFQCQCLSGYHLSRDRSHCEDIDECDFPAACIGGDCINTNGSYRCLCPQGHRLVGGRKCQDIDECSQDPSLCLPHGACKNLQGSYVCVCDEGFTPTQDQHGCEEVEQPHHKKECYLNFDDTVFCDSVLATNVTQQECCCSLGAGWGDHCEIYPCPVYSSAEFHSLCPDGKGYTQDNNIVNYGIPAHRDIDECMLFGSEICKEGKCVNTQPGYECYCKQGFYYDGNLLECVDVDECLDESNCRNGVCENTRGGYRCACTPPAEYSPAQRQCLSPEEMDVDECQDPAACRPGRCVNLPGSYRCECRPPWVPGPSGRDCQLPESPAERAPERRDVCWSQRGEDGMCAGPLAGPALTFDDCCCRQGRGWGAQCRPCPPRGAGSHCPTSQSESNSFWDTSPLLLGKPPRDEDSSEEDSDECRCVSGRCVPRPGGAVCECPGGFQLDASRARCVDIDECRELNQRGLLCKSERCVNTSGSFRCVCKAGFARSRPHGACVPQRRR
Sequence of hLTBP3-proTGFβ1 complex made by transfected cells (cell-based potency assay) (P01137 30-390, chain 2 of 2): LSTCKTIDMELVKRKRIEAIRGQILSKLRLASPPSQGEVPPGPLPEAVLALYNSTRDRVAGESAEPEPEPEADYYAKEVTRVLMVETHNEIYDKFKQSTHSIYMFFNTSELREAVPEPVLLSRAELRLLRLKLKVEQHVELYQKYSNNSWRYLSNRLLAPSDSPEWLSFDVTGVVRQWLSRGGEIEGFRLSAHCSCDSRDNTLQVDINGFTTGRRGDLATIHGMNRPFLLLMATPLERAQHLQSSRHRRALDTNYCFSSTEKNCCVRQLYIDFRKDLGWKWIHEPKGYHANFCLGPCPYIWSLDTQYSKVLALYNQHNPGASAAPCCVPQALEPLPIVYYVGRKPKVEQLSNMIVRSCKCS

The target in one assay is T1, human GARP-proTGFβ1 complex (human, UniProt Q14392 20-627; P01137 30-390).
T1 construct: also called hGARP-proTGFβ1; hGARP
T1 sequence (Q14392 20-627, chain 1 of 2): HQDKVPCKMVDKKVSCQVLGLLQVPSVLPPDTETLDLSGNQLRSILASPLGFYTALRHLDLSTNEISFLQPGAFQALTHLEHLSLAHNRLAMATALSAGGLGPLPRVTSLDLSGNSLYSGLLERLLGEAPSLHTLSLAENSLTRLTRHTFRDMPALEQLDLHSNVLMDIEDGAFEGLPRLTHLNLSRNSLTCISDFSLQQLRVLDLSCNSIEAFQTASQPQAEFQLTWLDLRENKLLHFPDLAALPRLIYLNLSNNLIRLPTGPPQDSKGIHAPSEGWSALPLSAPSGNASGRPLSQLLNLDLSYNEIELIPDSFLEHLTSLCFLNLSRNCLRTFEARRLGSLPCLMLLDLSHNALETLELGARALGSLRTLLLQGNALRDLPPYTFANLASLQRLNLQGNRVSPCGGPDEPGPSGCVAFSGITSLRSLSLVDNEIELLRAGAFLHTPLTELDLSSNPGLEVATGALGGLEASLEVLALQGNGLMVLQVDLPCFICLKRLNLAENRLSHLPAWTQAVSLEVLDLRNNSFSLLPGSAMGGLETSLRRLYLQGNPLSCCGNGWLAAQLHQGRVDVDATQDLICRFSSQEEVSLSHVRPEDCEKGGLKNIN
T1 sequence (P01137 30-390, chain 2 of 2): as the sequence (P01137 30-390, chain 2 of 2) above
Kind of assay: BLI (Octet).
In turn, B1 gave a Kd of 833 pM.

Regarding B2, the Kd was 797 pM.

As to B3, the Kd is 424 pM.

The molecule B4 gave a Kd of 488 pM.

For B5, the Kd came out at 1340 pM.

With B6, binding was put at a Kd of 4160 pM.

Take B7: the Kd stood at 10000 pM.

With B8, binding was characterised by a dissociation constant (Kd) of 15400 pM.

Molecule B9 showed a Kd of 12800 pM.

As to B10, the Kd was determined as 15500 pM.

In turn, B11 returned a Kd of 18000 pM.

For the molecule B12, binding was characterised by a dissociation constant (Kd) of 10200 pM. This Kd lies about 1.8-fold lower than the previous one.

B13 returned a Kd of 10500 pM.

Regarding B14, the Kd came out at 8620 pM.

For B15, the Kd amounted to 11500 pM. The Kd values of the last two molecules are within 1.5-fold of each other.

Consider B16, for which the Kd amounted to 7010 pM.

In a further assay the target is T2, human LTBP1-proTGFβ1 complex (human, UniProt Q14766 873-1507).
T2 construct: range 873-1507; biotinylated in Octet and MSD-SET; also called hLTBP1-proTGFβ1; hLTBP1
T2 sequence (Q14766 873-1507 limits assumed, chain 1 of 2): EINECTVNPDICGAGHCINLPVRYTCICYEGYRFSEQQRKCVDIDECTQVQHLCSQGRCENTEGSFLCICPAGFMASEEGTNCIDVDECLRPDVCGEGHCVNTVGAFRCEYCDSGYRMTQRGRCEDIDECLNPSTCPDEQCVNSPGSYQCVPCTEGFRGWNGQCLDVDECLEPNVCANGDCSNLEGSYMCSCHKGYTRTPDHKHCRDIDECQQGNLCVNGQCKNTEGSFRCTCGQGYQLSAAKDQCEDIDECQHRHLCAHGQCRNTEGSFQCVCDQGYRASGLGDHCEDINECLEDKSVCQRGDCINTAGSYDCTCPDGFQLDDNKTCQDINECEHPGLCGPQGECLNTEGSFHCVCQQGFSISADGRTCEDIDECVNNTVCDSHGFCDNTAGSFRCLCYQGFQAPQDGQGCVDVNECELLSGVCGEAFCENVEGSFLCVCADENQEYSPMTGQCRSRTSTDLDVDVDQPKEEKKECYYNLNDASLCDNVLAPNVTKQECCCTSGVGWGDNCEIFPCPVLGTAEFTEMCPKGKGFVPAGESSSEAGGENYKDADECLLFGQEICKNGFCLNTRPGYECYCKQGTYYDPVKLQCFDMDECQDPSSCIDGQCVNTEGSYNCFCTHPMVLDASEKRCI
T2 sequence (chain, as listed by the source limits assumed, chain 2 of 2): as the sequence (P01137 30-390, chain 2 of 2) above
The assay is described as follows: BLI (Octet). (In general: Biolayer interferometry detects binding as a change in optical thickness at a sensor tip.)
For the molecule B1, the Kd amounted to 225 pM.

In turn, B2 had a dissociation constant Kd of 340 pM.

B3 yielded a Kd of 178 pM.

Molecule B4 returned a Kd of 217 pM. The Kd values of the last two molecules are within 1.5-fold of each other.

Molecule B5 returned a Kd of 417 pM.

With B6, the Kd amounted to 181 pM.

With B7, binding was put at a Kd of 276 pM.

B8: the Kd stood at 329 pM.

For the molecule B9, the affinity, expressed as Kd, was 353 pM.

For the molecule B10, the Kd was 348 pM. This Kd and that of the molecule before are within 1.5-fold of each other.

B11: the Kd is 487 pM.

Take B12: binding was put at a Kd of 262 pM.

With B13, the affinity, expressed as Kd, was 336 pM.

B14 showed a dissociation constant (Kd) of 174 pM.

Turning to B15, the Kd came out at 312 pM.

In turn, B16 gave a Kd of 150 pM.

The target of the next assay is T3, human LTBP3-proTGFβ1 complex (human, UniProt Q9NS15 866-1039).
T3 construct: range 866-1039; also called hLTBP3-proTGFβ1; hLTBP3
The assay is described as follows: BLI (Octet).
With B1, the Kd came out at 268 pM.

For B2, binding was put at a Kd of 316 pM.

Molecule B3 showed a Kd of 238 pM. The Kd values of the last two molecules are within 1.5-fold of each other.

For the molecule B4, the Kd stood at 152 pM.

On to B5, for which the Kd is 468 pM.

On to B6, for which the Kd came to 132 pM. Against the preceding molecule, the Kd is about 3.5-fold lower.

Molecule B7 yielded a Kd of 249 pM.

Regarding B8, the Kd turned out to be 302 pM.

Regarding B9, binding was characterised by a dissociation constant (Kd) of 415 pM.

As to B10, the Kd was determined as 284 pM.

B11 came in with an equilibrium dissociation constant (Kd) of 417 pM.

Turning to B12, the affinity, expressed as Kd, was 319 pM.

B13 showed a Kd of 346 pM.

B14 had a Kd of 208 pM. Against the preceding molecule, the Kd is about 1.7-fold lower.

For B15, the Kd was found to be 257 pM. This Kd and that of the molecule before are within 1.5-fold of each other.

Molecule B16 had a Kd of 168 pM.

A further assay deals with T4, human LRRC33-proTGFβ1 complex (human, UniProt Q86YC3 19-650; P01137 30-390).
T4 construct: also called hLRRC33-proTGFβ1; hLRRC33
The assay is described as follows: BLI (Octet).
On to B1, for which the Kd turned out to be 455 pM.

B2: the Kd was 409 pM. The Kd values of the last two molecules are within 1.5-fold of each other.

Turning to B3, the affinity, expressed as Kd, was 299 pM. This Kd and that of the molecule before are within 1.5-fold of each other.

For the molecule B4, the Kd was 409 pM.

With B5, the Kd amounted to 455 pM.

As to B6, binding was characterised by a dissociation constant (Kd) of 631 pM. The Kd values of the last two molecules are within 1.5-fold of each other.

In turn, B7 displayed a Kd of 1400 pM.

For the molecule B8, the Kd amounted to 10000 pM. Against the preceding molecule, the Kd is about 7.1-fold higher.

In turn, B9 showed a Kd of 1420 pM.

On to B10, for which the Kd was 1300 pM.

In turn, B11 came in with a Kd of 10300 pM.

B12 had a Kd of 1060 pM.

Take B13: binding was characterised by a dissociation constant (Kd) of 1340 pM.

For the molecule B14, the Kd is 658 pM. Compared with the last molecule, the Kd is about 2-fold lower.

As for B15, the equilibrium dissociation constant (Kd) turned out to be 1020 pM.

In turn, B16 returned a Kd of 702 pM.

The target in the next assay is hLRRC33-proTGFβ1 complex on cells (human, UniProt Q86YC3 19-692; P01137 30-390). The assay is described as follows: cell-based or functional assay.
Sequence of hLRRC33-proTGFβ1 complex on cells (Q86YC3 19-692 limits assumed, chain 1 of 2): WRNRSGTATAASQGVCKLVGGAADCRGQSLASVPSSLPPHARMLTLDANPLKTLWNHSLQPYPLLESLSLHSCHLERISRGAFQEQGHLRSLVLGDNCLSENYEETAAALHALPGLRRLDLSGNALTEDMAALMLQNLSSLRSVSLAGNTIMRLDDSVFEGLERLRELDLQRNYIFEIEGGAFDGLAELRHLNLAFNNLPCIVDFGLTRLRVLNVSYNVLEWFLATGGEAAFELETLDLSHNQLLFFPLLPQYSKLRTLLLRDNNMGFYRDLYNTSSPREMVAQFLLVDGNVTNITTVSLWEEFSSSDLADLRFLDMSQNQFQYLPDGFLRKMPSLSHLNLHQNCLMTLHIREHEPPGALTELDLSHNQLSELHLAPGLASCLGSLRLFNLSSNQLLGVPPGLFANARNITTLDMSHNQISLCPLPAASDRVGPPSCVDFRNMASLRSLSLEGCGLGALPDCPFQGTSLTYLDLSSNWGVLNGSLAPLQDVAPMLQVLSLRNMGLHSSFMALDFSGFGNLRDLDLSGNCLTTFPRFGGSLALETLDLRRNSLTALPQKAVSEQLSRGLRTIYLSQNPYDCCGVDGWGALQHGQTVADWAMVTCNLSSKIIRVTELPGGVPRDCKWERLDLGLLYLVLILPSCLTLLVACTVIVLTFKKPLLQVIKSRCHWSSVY
Sequence of hLRRC33-proTGFβ1 complex on cells (P01137 30-390 limits assumed, chain 2 of 2): as the sequence (P01137 30-390, chain 2 of 2) above
Take B17: the “IC50, reporter cell assay of TGFβ1 activation” value (“IC50, reporter cell assay” below) worked out at 616 pM.

Take B1: the “IC50, reporter cell assay” value is 596 pM.

With B4, the “IC50, reporter cell assay” value was determined as 653 pM.

As for B5, the “IC50, reporter cell assay” value stood at 579 pM.

B18: the “IC50, reporter cell assay” value worked out at 5370 pM.

Another assay has as its target hLTBP3-proTGFβ1 complex made by transfected cells (cell-based potency assay) (human, UniProt Q9NS15 44-1303; P01137 30-390). The assay is described as follows: cell-based or functional assay.
For B17, the “IC50, reporter cell assay” value came to 1000 pM.

Turning to B1, the “IC50, reporter cell assay” value was 765 pM.

In the case of B4, the “IC50, reporter cell assay” value is 538 pM.

As to B5, the “IC50, reporter cell assay” value amounted to 879 pM.

In the case of B18, the “IC50, reporter cell assay” value turned out to be 2710 pM.

A further assay concerns the target hGARP-proTGFβ1 complex on cells (human, UniProt Q14392 20-662; P01137 30-390). Kind of assay: cell-based or functional assay.
With B17, the “IC50, reporter cell assay” value came out at 140 pM.

B1: the “IC50, reporter cell assay” value turned out to be 400 pM.

In the case of B4, the “IC50, reporter cell assay” value turned out to be 442 pM.

On to B5, for which the “IC50, reporter cell assay” value came to 264 pM.

Consider B18, for which the “IC50, reporter cell assay” value was 3720 pM.

A further assay deals with hLTBP1-proTGFβ1 complex made by transfected cells (cell-based potency assay) (human, UniProt Q14766 347-1721; P01137 30-390). The assay is described as follows: cell-based or functional assay.
With B17, the “IC50, reporter cell assay” value came out at 1290 pM.

On to B1, for which the “IC50, reporter cell assay” value stood at 1610 pM.

Regarding B4, the “IC50, reporter cell assay” value turned out to be 6080 pM.

For the molecule B5, the “IC50, reporter cell assay” value worked out at 835 pM.

Consider B18, for which the “IC50, reporter cell assay” value is 14500 pM.
